One block for each binder: values may come before it.
Key:
[1] = target: T1, soluble mouse FcRn (mFcRn), with mouse β2-microglobulin (mouse, UniProt Q61559 22-290; P01887 21-119); assay: SPR (Biacore T100), mouse FcRn immobilised on a CM4 chip, Fv4-IgG1 50 µg/mL alone or with hsIL6R 12.5 µg/mL as analyte, pH 7.4, 25 °C; bound amount normalised to 100 [i]
T1 sequence: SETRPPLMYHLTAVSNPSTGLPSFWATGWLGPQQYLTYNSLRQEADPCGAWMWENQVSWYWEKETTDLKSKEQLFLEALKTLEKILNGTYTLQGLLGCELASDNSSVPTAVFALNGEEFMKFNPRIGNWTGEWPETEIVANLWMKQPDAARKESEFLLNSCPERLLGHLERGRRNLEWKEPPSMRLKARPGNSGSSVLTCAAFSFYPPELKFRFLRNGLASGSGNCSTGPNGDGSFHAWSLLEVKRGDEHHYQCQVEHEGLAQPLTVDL
T1 sequence (b2m): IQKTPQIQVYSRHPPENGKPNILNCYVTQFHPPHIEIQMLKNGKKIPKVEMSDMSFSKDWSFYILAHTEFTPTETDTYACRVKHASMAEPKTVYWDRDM
Procedure: (§1) Binding of an antigen-antibody immune complex with FcRn was assessed using Biacore T100 (GE Healthcare). […] Subsequently, a 20 mM Tris-HCl, 150 mM NaCl, pH 9.0 or pH 9.5 solution was injected to regenerate the sensor chip. A 50 mmol/L Na-Phosphate (phsophoric acid), 150 mmol/L NaCl, 0.05% Tween20, pH 7.4 buffer was used as the running buffer, and binding between the antigen-antibody immune complex and FcRn was measured at 25° C.

[2] = target: T2, soluble human IL-6 receptor (hsIL-6R) (human, UniProt P08887 20-357); assay: ECL sandwich: biotinylated Fv4-IgG1 on streptavidin plate captures hsIL-6R, detected with ruthenium-labelled PHX-F29
T2 construct: also called hIL-6R
T2 sequence: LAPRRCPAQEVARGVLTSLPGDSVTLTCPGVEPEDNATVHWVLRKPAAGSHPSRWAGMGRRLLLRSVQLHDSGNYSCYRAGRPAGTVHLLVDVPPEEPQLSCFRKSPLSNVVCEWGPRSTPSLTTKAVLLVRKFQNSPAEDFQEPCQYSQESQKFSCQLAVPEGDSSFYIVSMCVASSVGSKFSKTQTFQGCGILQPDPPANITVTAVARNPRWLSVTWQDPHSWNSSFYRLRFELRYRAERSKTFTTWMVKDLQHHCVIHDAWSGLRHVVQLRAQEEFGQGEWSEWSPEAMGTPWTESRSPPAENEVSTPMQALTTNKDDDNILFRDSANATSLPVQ
Procedure: Whether or not two types of antibodies can bind to a single antigen simultaneously was evaluated by an electrochemiluminescence method. […] After washing, 100 μL of the hsIL-6R solutions prepared at 0, 0.2, 1, 5, and 25 μg/mL was added, and they were allowed to react at room temperature for one hour. […] After washing, 150 μL of Read Buffer T (×4) (Meso Scale Discovery) was dispensed into each well, and this was immediately followed by chemiluminescence measurement using the SECTOR IMAGER 2400 Reader (Meso Scale Discovery).

[3] = target: soluble human FcRn (hFcRn), complex with β2-microglobulin (human, UniProt P55899 24-290; P61769 21-119); assay: SPR (Biacore T100), human FcRn immobilised on a CM4 chip, Fv4-F22 10 µg/mL alone or with hsIL6R 2.5 µg/mL as analyte, pH 7.4, 25 °C; bound amount normalised to 100 [i]
Procedure: (§2) Binding of an antigen-antibody immune complex with human FcRn was assessed using Biacore T100 (GE Healthcare).
(§3) Subsequently, a 20 mM Tris-HCl, 150 mM NaCl, pH 9.0 or pH 9.5 solution was injected to regenerate the sensor chip. A 50 mmol/L Na-Phosphate (phosphoric acid), 150 mmol/L NaCl, 0.05% Tween20, pH 7.4 buffer was used as the running buffer, and binding between the antigen-antibody immune complex and FcRn was measured at 25° C.

[4] = target: T2, soluble human IL-6 receptor (hsIL-6R); assay: SPR (Biacore T100), 25 C, pH 7.4; Fv4-F22 10 µg/mL with or without hsIL6R 2.5 µg/mL over immobilized hFcRn
Procedure: as §2, §3

[5] = target: T1, soluble mouse FcRn (mFcRn), with mouse …; assay: SPR (Biacore T100), mouse FcRn immobilised on a CM4 chip, clone 278-IgG1 50 µg/mL as analyte, pH 7.4, 25 °C; bound amount normalised to 100 [ii]
Procedure: as §1

[6] = target: T3, human IgE (variable region derived from an anti-human glypican3 antibody) (human); assay: SPR (Biacore T200), 37 C; ratio of KD values
T3 construct: also called hIgE
T3 sequence (heavy, as listed by the source): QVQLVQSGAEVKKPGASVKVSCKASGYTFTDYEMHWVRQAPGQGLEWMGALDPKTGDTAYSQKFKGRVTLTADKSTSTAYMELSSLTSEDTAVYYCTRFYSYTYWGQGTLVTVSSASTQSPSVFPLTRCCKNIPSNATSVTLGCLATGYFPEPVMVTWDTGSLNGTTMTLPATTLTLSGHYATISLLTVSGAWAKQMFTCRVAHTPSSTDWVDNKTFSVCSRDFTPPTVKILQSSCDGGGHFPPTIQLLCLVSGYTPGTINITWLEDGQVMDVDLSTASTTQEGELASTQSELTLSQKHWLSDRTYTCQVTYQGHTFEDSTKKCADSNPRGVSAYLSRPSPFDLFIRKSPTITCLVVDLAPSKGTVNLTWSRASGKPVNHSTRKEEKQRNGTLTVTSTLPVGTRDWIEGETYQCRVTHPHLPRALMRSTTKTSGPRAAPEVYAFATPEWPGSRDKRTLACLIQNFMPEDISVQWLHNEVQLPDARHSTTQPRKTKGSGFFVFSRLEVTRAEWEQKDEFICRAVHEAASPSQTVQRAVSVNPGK
Procedure: Running buffers used in the assay were:
A chemically-synthetized peptide having a human glypican 3 protein-derived sequence (SEQ ID NO: 47) whose C-terminal Lys is biotinylated (hereinafter abbreviated as “biotinylated GPC3 peptide”) was added in an appropriate amount and immobilized onto Sensor chip SA (GE Healthcare) based on the affinity between biotin and streptavidin. Human IgE was immobilized onto the chip by injecting it at an appropriate concentration so as to be trapped by the biotinylated GPC3 peptide. […] Then, 10 mmol/L glycine-HCl (pH 1.5) was injected to regenerate the sensor chip. The interaction was always measured at 37° C. The measurement result was analyzed by curve fitting using Biacore T200 Evaluation Software (GE Healthcare) to calculate the association rate constant ka (1/Ms) and dissociation rate constant kd (1/s). The dissociation constant KD (M) was calculated from the above-described constants.

[7] = target: Human IgA (hIgA), H (WT)-IgA1 / L (WT) (human); assay: >=
Human IgA (hIgA), H (WT)-IgA1 / L (WT) (human), sequence (VH, as listed by the source): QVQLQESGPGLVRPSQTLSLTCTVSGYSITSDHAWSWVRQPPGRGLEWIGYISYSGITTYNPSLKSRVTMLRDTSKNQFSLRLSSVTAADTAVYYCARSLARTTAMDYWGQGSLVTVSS

[8] = target: T4, GC-hIgA-MYC (human); assay: SPR (Biacore T200), 25 C, pH 7.4, 1.2 mM Ca; 200 nM antibody with or without 200 nM antigen over captured human FcγRIIIaV; immune complex shown by slower dissociation
T4 construct: also called hIgA-v2
T4 sequence (heavy, as listed by the source): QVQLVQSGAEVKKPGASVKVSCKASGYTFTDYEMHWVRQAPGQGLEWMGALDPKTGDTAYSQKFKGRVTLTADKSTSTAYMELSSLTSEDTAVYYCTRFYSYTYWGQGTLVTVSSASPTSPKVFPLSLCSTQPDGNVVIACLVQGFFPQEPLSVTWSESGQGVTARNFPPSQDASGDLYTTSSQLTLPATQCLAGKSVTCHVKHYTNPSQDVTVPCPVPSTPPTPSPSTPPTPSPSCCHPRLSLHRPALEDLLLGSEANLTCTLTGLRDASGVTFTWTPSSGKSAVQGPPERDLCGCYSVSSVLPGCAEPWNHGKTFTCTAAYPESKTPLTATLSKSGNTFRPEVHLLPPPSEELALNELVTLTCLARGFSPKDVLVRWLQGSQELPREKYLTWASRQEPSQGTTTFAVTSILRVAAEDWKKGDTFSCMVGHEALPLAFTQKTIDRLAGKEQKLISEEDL
Procedure: Binding of an antigen-antibody immune complex with FcγR was assessed using Biacore T200 (GE Healthcare).
A suitable amount of the Penta-His Antibody (QIAGEN) was immobilized onto Sensor chip CM5 (GE Healthcare) by an amine coupling method; and a suitable concentration of his-tagged human FcγR IIIaV was injected. Human FcγR IIIaV was immobilized onto the chip by allowing the penta-His antibody immobilized on the chip to capture human FcγR IIIaV. A solution containing 200 nM antibody or a mixed solution containing 200 nM antibody and 200 nM antigen was injected as the analyte; and it was allowed to interact with human FcγR IIIaV immobilized on the sensor chip. Subsequently, a 10 mmol/L Glycine-HCl, pH2.5 solution was injected to regenerate the sensorchip. A 1.2 mmol/L CaCl₂/0.05% tween20, 20 mmol/L ACES, 150 mmol/L NaCl, pH 7.4 buffer was used as the running buffer, and binding between the antigen-antibody immune complex and FcγR was measured at 25° C.

B1: Fv4-IgG1 (antibody)
heavy: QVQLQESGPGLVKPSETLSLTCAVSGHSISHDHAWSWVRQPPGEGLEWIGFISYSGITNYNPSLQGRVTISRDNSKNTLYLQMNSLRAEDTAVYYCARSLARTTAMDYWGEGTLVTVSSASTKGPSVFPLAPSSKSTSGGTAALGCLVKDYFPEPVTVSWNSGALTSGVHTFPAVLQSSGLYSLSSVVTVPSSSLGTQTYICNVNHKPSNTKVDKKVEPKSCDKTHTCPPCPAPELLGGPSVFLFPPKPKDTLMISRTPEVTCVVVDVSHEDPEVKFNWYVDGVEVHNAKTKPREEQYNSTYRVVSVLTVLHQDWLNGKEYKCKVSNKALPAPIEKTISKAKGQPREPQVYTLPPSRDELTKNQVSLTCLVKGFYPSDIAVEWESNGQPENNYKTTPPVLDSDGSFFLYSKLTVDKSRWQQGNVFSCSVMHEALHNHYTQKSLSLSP
light: DIQMTQSPSSLSASVGDSVTITCQASTDISSHLNWYQQKPGKAPELLIYYGSHLLSGVPSRFSGSGSGTDFTFTISSLEAEDAATYYCGQGNRLPYTFGQGTKVEIERTVAAPSVFIFPPSDEQLKSGTASVVCLLNNFYPREAKVQWKVDNALQSGNSQESVTEQDSKDSTYSLSSTLTLSKADYEKHKVYACEVTHQGLSSPVTKSFNRGEC
notes: pH-dependent anti-human IL-6 receptor antibody
binding result [1]: binds
binding result [2]: binds

B3: clone 278 (antibody, human IgG1, kappa)
heavy: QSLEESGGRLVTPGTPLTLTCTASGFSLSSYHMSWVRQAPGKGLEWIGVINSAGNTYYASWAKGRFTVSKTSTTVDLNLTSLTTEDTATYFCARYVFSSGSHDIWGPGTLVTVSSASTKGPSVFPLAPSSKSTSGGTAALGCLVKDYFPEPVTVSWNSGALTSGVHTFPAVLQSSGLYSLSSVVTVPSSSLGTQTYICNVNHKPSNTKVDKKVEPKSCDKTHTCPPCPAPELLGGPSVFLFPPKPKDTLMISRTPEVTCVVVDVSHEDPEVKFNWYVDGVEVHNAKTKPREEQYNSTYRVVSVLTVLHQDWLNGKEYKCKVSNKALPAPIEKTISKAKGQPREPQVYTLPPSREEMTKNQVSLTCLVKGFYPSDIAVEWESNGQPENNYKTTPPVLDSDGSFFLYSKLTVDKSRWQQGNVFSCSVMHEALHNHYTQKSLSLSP
light: AYDMTQTPASVEVAVGGTVTIKCQASQSIGSWLAWYQQKPGQPPKELIYGTSTLESGVPSRFIGSGSGTEFTLTISGVECADAATYYCQQGYSEDNIDNAFGGGTEVVVKRTVAAPSVFIFPPSDEQLKSGTASVVCLLNNFYPREAKVQWKVDNALQSGNSQESVTEQDSKDSTYSLSSTLTLSKADYEKHKVYACEVTHQGLSSPVTKSFNRGEC
notes: pH-dependent anti-human IgE antibody with a human IgG1 heavy chain constant region and a human light chain constant region
binding result [5]: binds
pH dependency, KD (pH 5.8, 1.2 mM Ca)/KD (pH 7.4, 1.2 mM Ca) [6]: 842 ratio
pH/Ca dependency, KD (pH 5.8, 3 µM Ca)/KD (pH 7.4, 1.2 mM Ca) [6]: 1640 ratio

Results, then the binder that gave them:

binding result [3]: binds
binding result [4]: binds
B2: Fv4-F22 (antibody, human IgG1, kappa)
heavy: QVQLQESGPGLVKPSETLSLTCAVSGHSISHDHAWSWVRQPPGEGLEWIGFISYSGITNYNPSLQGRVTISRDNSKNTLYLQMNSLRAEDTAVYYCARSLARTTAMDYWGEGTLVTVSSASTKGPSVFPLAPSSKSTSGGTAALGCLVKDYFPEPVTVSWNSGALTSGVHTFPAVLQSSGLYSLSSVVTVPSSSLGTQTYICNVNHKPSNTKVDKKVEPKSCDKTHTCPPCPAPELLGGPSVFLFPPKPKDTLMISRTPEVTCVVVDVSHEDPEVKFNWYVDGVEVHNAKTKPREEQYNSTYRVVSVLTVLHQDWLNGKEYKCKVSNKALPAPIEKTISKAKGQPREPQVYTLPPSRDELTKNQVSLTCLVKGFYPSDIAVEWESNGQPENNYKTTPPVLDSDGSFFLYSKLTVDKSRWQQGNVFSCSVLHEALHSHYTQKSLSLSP
light: DIQMTQSPSSLSASVGDSVTITCQASTDISSHLNWYQQKPGKAPELLIYYGSHLLSGVPSRFSGSGSGTDFTFTISSLEAEDAATYYCGQGNRLPYTFGQGTKVEIERTVAAPSVFIFPPSDEQLKSGTASVVCLLNNFYPREAKVQWKVDNALQSGNSQESVTEQDSKDSTYSLSSTLTLSKADYEKHKVYACEVTHQGLSSPVTKSFNRGEC

Ca-dependent binding activity (fold) [7]: 100 times
binding result [8]: binds
B4: GA2-IgG1 (antibody, V domains shown)
VH: QVQLVQSGAEVKKPGSSVKVSCKASGGTFSSYAISWVRQAPGQGLEWMGGIIPIFGTANYAQKFQGRVTITADESTSTAYMELSSLRSEDTAVYYCARPRWETAISSDAFDIWGQGTMVTVSS
VL: DIQMTQSPSSLSASVGDRVTITCRASQSISDDLNWYQQKPGKAPKLLIYEASNLQSGVPSRFSGSGSGTDFTLTISSLQPEDFATYYCQQHSSSPLTFGQGTKVEIKR
notes: also called GA-IgG1

— patent publication US20190218309A1 (Chugai, published 2019)
